Source: patent publication US11485776B2, “Antibodies against infectious diseases” (priority 2015, dated 2022)
“Also recorded” adds a separate entry of the source.

Columns and labels:
[1] = molecular target: T1, ENO1 protein expressed in cell lysates of C. albicans (Candida albicans, UniProt P30575); assay: Western blot on total cell lysate of C. albicans; format: binding
T1 construct: endogenous in cells; host or cells: C. albicans SC 5314 and clinical isolates CA6-17, CA7-26, CA7-3, CA10-50, CA7-30, CA10-65
T1 sequence (P30575 whole entry): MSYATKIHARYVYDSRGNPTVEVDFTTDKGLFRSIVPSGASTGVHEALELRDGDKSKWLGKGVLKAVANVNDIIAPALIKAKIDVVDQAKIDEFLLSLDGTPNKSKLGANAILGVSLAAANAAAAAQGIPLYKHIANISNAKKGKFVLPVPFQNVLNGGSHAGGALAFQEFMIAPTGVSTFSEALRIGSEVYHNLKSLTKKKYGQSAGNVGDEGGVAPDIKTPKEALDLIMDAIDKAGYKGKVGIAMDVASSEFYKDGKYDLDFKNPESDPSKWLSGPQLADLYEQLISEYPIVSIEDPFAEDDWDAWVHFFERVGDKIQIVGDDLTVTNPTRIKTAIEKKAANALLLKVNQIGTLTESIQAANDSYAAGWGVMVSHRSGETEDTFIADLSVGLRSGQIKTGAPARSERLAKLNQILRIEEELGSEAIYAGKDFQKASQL
From the text: (A) The total cell lysates of 5 Candida spp. were visualized on SDS-PAGE (left). After transferred onto the NC membranes, they were probed with purified anti-CaENO1 from 7th immunized chicken (1:3,000) (middle), or with CaS1 scFv (right) as described in material and methods. Lanes 1-6 in (A) contained the total cell lysates of C. albicans, C. krusei, C. tropicalis, C. parapsilosis and C. glabrate and purified recombinant CaENO1, respectively. […] (C) Total cell lysate from FLU^R and FLU^s and C. tropicalis (lanes 1-5 represent CT6-29, CT11-52, CT6-50, CT12-54, BCRC20520, respectively) by SDS-PAGE (left) and probed with CaS1 scFv by Western blot (right). (D) The purified ENO1 proteins of C. albicans, S. pneumonia, S. aureus, mouse and human were visualized on SDS-PAGE (left). After transferred onto the NC membranes, they were probed with purified CaS1 scFv (right) as described. Lane M contained protein markers. […]
This CaS1 scFv was evaluated for its binding activity to different species of Candida. Five common strains of Candida were obtained, total lysate of five species Candida were analyzed on SDS-PAGE (FIG. 6A left) and subsequent Western blot.

CaENO1 = molecular target: T2, CaENO1 (Candida albicans, UniProt P30575); assay: Western blot on purified ENO1 protein of C. albicans; format: binding
T2 construct: using full-length CaENO1 (1323 bp) as template; His (N); made in house; host or cells: E. coli BL21
T2 sequence (P30575 whole entry): as above
From the text: (A) The total cell lysates of 5 Candida spp. were visualized on SDS-PAGE (left). After transferred onto the NC membranes, they were probed with purified anti-CaENO1 from 7th immunized chicken (1:3,000) (middle), or with CaS1 scFv (right) as described in material and methods. Lanes 1-6 in (A) contained the total cell lysates of C. albicans, C. krusei, C. tropicalis, C. parapsilosis and C. glabrate and purified recombinant CaENO1, respectively. […] (C) Total cell lysate from FLU^R and FLU^s and C. tropicalis (lanes 1-5 represent CT6-29, CT11-52, CT6-50, CT12-54, BCRC20520, respectively) by SDS-PAGE (left) and probed with CaS1 scFv by Western blot (right). (D) The purified ENO1 proteins of C. albicans, S. pneumonia, S. aureus, mouse and human were visualized on SDS-PAGE (left). After transferred onto the NC membranes, they were probed with purified CaS1 scFv (right) as described. Lane M contained protein markers.
Briefly, C. albicans alpha-enolase genes were constructed in pQE30 plasmids to form pQE30-CaENO1 vector, and then the resulting vectors were transformed with E. coli BL21 cells. The bacterial culture was grown in 10 ml LB medium containing ampicillin ([…]) at 37° C. overnight, diluted 10-fold in the same LB medium and further grown until the OD600 reached between 0.6 and 1.0. […]

[2] = molecular target: T3, CaENO1 binding to plasminogen (Candida albicans, UniProt P30575); assay: Fibrin matrix-gel degradation with CaENO1 on Ni sepharose; format: biochemical, C. albicans; conditions: antibody 100 ug; for Binding of CaENO1 to plasminogen: CaENO1 on Ni sepharose
T3 construct: using full-length CaENO1 (1323 bp) as template; made in house; host or cells: E. coli BL21
T3 sequence (P30575 whole entry): as above
Description: Each experimental group of CaENO1 with CaS1 scFv were dropped onto gel and incubated at room temperature for 2 days to observe gel degrade result. (1) plasminogen (1 ug/ul) only. (2) CaENO1 on Ni Sepharose™ (10 ug). (3) CaENO1 on Sepharose™ (10 ug) with plasminogen (20 ug).
Each experimental group of CaENO1 with CaS1 scFv were dropped onto gel and incubated at room temperature for 2 days to observe gel degrade result an the results are shown in FIG. 15.

[3] = test system: binding of C. albicans cells to human oral keratinocyte OECM-1 cells; assay: Adhesion assay of C. albicans to OECM-1 cells; format: cell-based; conditions: 50 μg and 100 μg, vs PBS control
Description: C. albicans were mixed with 1×PBS, 50 ug or 100 ug CaS1 scFv at 37° C. for 1 hr and added into OECM-1 cells in culture wells as described in the text. After being washed, cells attached to C. albicans were detected by adding HRP-conjugated anti-C. albicans antibodies.
Cell adhesion assay was performed using human oral epidermal cells (OECM-1) (XXX). C. albicans (1×10^6 cfu) were pre-incubated with CaS1 scFv antibodies ([…]) at 37° C. for 1 hr. After incubation, the mixtures were two-fold diluted and added onto 10^4 OECM-1 cells cultured in 96-well plates. The plates were further incubated at 4° C. for 2 hrs. After being washed three times with 1×PBS, the plates were fixed with 10% formaldehyde. After being washed as above, the wells were blocked with skim milk for 1 hr. Thereafter, rabbit anti-C. albicans antibodies (1:3,000, Bethyl, USA) were added and incubated for another 1 hr, followed by adding the HRP-conjugated anti-rabbit antibodies (1:3,000, Bethyl, USA). Washings as above were always carried out between steps. TMB was used for color development, which was stopped with 1 N HCl. The intensity of the color was measured at 450 nm on an ELISA plate reader.
C. albicans cells (1×10^6) were treated with 50 μg and 100 μg of scFv CaS1, respectively, and the resulting mixtures were added to human oral keratinocyte OECM-1 cells to test the binding ability of C. albicans cells to OECM-1 cells.

B1: CaS1 scFv: anti-CaENO1 scFv monoclonal antibody from chicken phage library; light chain SEQ ID NO:11, heavy chain SEQ ID NO:12 (antibody, V domains shown)
VH: TVTLDESGGGLQTPRGALSLVCKASGFTFIDYGMQWVRQAPGKGLEWVAGIGSSGSSTNYGAAVKGRATISRDDGQSTVRLQLNNLRAEDTGTYYCAKSAGGYCVNGAGCNGGSIDAWGHGTEVIVSS
VL: ALTQPSSVSANLGGTVKITCSGGSGSYGWYQQKSPGSAPVTVIYSNNQRPSNIPSRFSGSPSGSTGTLTITGVQADDEAVYFCGSRDSSYVGVFGAGTTLTVL
modifications: scFv linker; amino acid sequence comprised in a heavy chain of an anti-CaENO1 scFv monoclonal antibody (CaS1); amino acid sequence comprised in a light chain of an anti-CaENO1 scFv monoclonal antibody (CaS1)
B1 was tested, and the “Binding to fluconazole resistance and susceptible C. albicans from clinic (Western blot)” value [1] was “binds; also recorded: can bind”, the “Binding to ENO1 in total cell lysate of C. albicans (Western blot)” value ([1]; C. albicans SC 5314 lysate) was “specifically recognized; also recorded: reacted” and the “Binding to purified CaENO1 (Western blot)” value (CaENO1) was “bind and recognizes”. The “Fibrinolytic activity of CaENO1 on Sepharose with plasminogen” value ([2]; CaENO1 10 ug, plasminogen 20 ug, 2 days) was “no fibrinolytic activity”, the “Binding of CaENO1 to plasminogen” value [2] was “significantly reduced” and the “Binding of CaENO1 to plasminogen” value ([2]; listed as CaS1) was “inhibits”. For the same molecule, the “Binding of C. albicans cells to OECM-1 cells” value (shortened to “Binding of C. albicans cells”) ([3]; listed as CaS1) was “inhibited its adherence”, the “Binding of C. albicans cells” value ([3]; listed as CaS1 ScFv) was “inhibited” and the “Binding of C. albicans cells” value ([3]; listed as scFv CaS1) was “significantly reduced”.
